Results: the Immune Epitope Database (IEDB)

How the values were obtained:
HLA-B*15:01 [1] = assay: IEDB peptide-MHC binding, purified MHC/competitive/fluorescence; filed as Kd, often an IC50 or EC50 that approximates it; ≥ and ≤ were set here for values at or beyond the usual limits of such assays; settings: source organism: Salmonella enterica subsp. enterica serovar Typhi
HLA-A*02:01 [2] = assay: as above; settings: source organism: Salmonella enterica subsp. enterica serovar Typhi
HLA-B*18:01 [3] = assay: IEDB peptide-MHC binding, purified MHC/competitive/radioactivity; filed as Kd, often an IC50 or EC50 that approximates it; ≥ and ≤ were set here for values at or beyond the usual limits of such assays
HLA-B*44:02 [4] = assay: as above
HLA-B*40:02 = assay: as above
HLA-B*44:03 = assay: as above
HLA-B*40:01 = assay: as above
HLA-B*45:01 = assay: as above
HLA-B*57:01 [5] = assay: as above
HLA-A*11:01 = assay: IEDB peptide-MHC binding, purified MHC/direct/fluorescence; filed as Kd, often an IC50 or EC50 that approximates it; ≥ and ≤ were set here for values at or beyond the usual limits of such assays
HLA-A*31:01 = assay: as above
HLA-B*46:01 = assay: as above
HLA-B*18:01 [6] = assay: as above; settings: source organism: Yellow fever virus
HLA-A*01:01 [7] = assay: as above
HLA-A*03:01 = assay: as above
HLA-B*44:02 [8] = assay: as above
HLA-B*27:05 = assay: as above
HLA-A*02:01 [9] = assay: as above
HLA-B*58:01 = assay: as above
HLA-B*07:02 = assay: as above
HLA-B*57:01 [10] = assay: as above
HLA-B*48:01 = assay: as above; settings: source organism: Mammarenavirus brazilense
HLA-B*15:01 [11] = assay: as above; settings: source organism: Mammarenavirus brazilense
HLA-A*69:01 = assay: as above; settings: source organism: Mammarenavirus brazilense
HLA-B*08:01 = assay: as above; settings: source organism: Mammarenavirus brazilense
HLA-A*01:01 [12] = assay: IEDB peptide-MHC binding, purified MHC/competitive/radioactivity; filed as Kd, often an IC50 or EC50 that approximates it; ≥ and ≤ were set here for values at or beyond the usual limits of such assays; settings: source organism: Dengue virus 3 Martinique/1243/1999
[13] = source organism: SARS coronavirus Tor2
[14] = source organism: Yellow fever virus
[15] = source organism: Mammarenavirus brazilense
[16] = source organism: Mammarenavirus juninense

KQSSFLSSL
Kd (HLA-B*15:01 [1]): 0.0941 µM | Kd (HLA-A*02:01 [2]): 0.0381 µM

KDYMSLSEQL
Kd (HLA-B*18:01 [3]; [13]): ≥ 70.5 µM | Kd (HLA-B*44:02 [4]; [13]): ≥ 25.6 µM | Kd (HLA-B*40:02; [13]): 5.78 µM | Kd (HLA-B*44:03; [13]): ≥ 29.6 µM | Kd (HLA-B*40:01; [13]): 6.19 µM

HEDLMAAYV
Kd (HLA-B*18:01 [3]; [13]): 3.91 µM | Kd (HLA-B*45:01; [13]): 1.69 µM | Kd (HLA-B*44:02 [4]; [13]): 7.08 µM | Kd (HLA-B*40:02; [13]): 1.33 µM | Kd (HLA-B*44:03; [13]): 5.06 µM | Kd (HLA-B*40:01; [13]): 1.2 µM

KELSPRWYF
Kd (HLA-B*18:01 [3]; [13]): 1.88 µM | Kd (HLA-B*45:01; [13]): 6.01 µM | Kd (HLA-B*44:02 [4]; [13]): 0.0634 µM | Kd (HLA-B*40:02; [13]): 0.0073 µM | Kd (HLA-B*44:03; [13]): 0.0528 µM | Kd (HLA-B*40:01; [13]): 0.889 µM

PASIAARGYI
Kd (HLA-B*57:01 [5]; source organism: Dengue virus 2 Jamaica/1409/1983): 0.365 µM

SSARYDVAL
Kd (HLA-A*11:01; [14]): ≥ 20 µM | Kd (HLA-A*31:01; [14]): ≥ 20 µM | Kd (HLA-B*46:01; [14]): ≥ 20 µM | Kd (HLA-B*18:01 [6]): ≥ 20 µM | Kd (HLA-A*01:01 [7]; [14]): ≥ 20 µM | Kd (HLA-A*03:01; [14]): ≥ 20 µM | Kd (HLA-B*44:02 [8]; [14]): ≥ 20 µM | Kd (HLA-B*27:05; [14]): ≥ 20 µM | Kd (HLA-A*02:01 [9]; [14]): ≥ 20 µM | Kd (HLA-B*58:01; [14]): ≥ 20 µM | Kd (HLA-B*07:02; source organism: Yellow fever virus 17D): ≥ 20 µM | Kd (HLA-B*57:01 [10]; [14]): ≥ 20 µM

HECFVKRVDW
Kd (HLA-B*18:01 [3]; [13]): 6.62 µM | Kd (HLA-B*45:01; [13]): ≥ 33.8 µM | Kd (HLA-B*44:02 [4]; [13]): 0.302 µM | Kd (HLA-B*40:02; [13]): 5.78 µM | Kd (HLA-B*44:03; [13]): 0.187 µM | Kd (HLA-B*40:01; [13]): ≥ 69.6 µM

VETFYPKLQA
Kd (HLA-B*18:01 [3]; [13]): ≥ 59.6 µM | Kd (HLA-B*45:01; [13]): 2.6 µM | Kd (HLA-B*44:02 [4]; [13]): ≥ 70.2 µM | Kd (HLA-B*40:02; [13]): 12.6 µM | Kd (HLA-B*44:03; [13]): ≥ 41.4 µM | Kd (HLA-B*40:01; [13]): ≥ 69.6 µM

EFKSRFFVM
Kd (HLA-B*48:01): ≥ 20 µM | Kd (HLA-B*15:01 [11]): ≥ 20 µM | Kd (HLA-A*11:01; [15]): ≥ 20 µM | Kd (HLA-A*31:01; [15]): ≥ 20 µM | Kd (HLA-A*69:01): ≥ 20 µM | Kd (HLA-B*46:01; [15]): ≥ 20 µM | Kd (HLA-A*01:01 [7]; [15]): ≥ 20 µM | Kd (HLA-A*03:01; [15]): ≥ 20 µM | Kd (HLA-B*08:01): 0.364 µM | Kd (HLA-B*44:02 [8]; [15]): ≥ 20 µM | Kd (HLA-B*27:05; [15]): ≥ 20 µM | Kd (HLA-A*02:01 [9]; [15]): ≥ 20 µM | Kd (HLA-B*58:01; [15]): ≥ 20 µM | Kd (HLA-B*07:02; [15]): ≥ 20 µM | Kd (HLA-B*57:01 [10]; [15]): ≥ 20 µM

SSSMRKTDWL
Kd (HLA-A*01:01 [12]): ≥ 49.7 µM | Kd (HLA-B*57:01 [5]; source organism: Dengue virus 3 Martinique/1243/1999): 3.14 µM

KETLYRIDG
Kd (HLA-B*18:01 [3]; [13]): ≥ 77.5 µM | Kd (HLA-B*45:01; [13]): ≥ 24 µM | Kd (HLA-B*44:02 [4]; [13]): ≥ 57.7 µM | Kd (HLA-B*40:02; [13]): ≥ 45.6 µM | Kd (HLA-B*44:03; [13]): ≥ 30.6 µM | Kd (HLA-B*40:01; [13]): ≥ 46 µM

SDFLISEML
Kd (HLA-B*18:01 [3]; [16]): ≥ 56 µM | Kd (HLA-B*45:01; [16]): ≥ 27.6 µM | Kd (HLA-B*44:02 [4]; [16]): 2.4 µM | Kd (HLA-B*40:02; [16]): 0.0171 µM | Kd (HLA-B*44:03; [16]): ≥ 51.5 µM | Kd (HLA-B*40:01; [16]): 11.5 µM
